According to the DeepSol protein solubility set:

Assay: soluble on expression in E. coli; label from the status in PepcDB or PDB records
For “MYPDGLTENEKLKVKELCTMVNISDEDAIKLLKENDWDIAISSRRVSKQEDKTLVPGTSREEIDLDRLSSRLRVHGLAFYLPDFGGFPNEFRTFLEKDLIETQTQKRLEASRHLNWWHQFGQKLYPLSTTGDGNCLLHAASLGMWGVHDRQLSLRETLYELLTNGARKEAIRRRWKWVENHMNQSNGLALTLSENEWELEWDVVLGLSSPLPRKQEDNGSNSTDQIYESLEAIHVFALAHVLKRPVVVVSDTILRNAKGEELSPVAFGGIYLPLECPPSQCHRSPLVLCYDSAHFSPLVLMRTETNNKQIIPIIDVNRNLLPVHFAVDPGESFDWSKLETNSNTQTTTDMSQIDKLALISQYMDIIRLDVRRGSIRSSRRVRSAHAQLLTESRGENGQNLPQKSIKPRDLSAHSSDEQPSNNAKGMTLASSGIGSGRHEKWRLINEIRTHVLRTFRISSSTRGKEKLIDTDDCIARMNSTCVLASELLPTHHQYMDKIINEYMKSAKQRFQQNQRTQSDSRKRISRSFSASSLMLTCIGCDSEFKPASQVTNIMCDQCFAWQKMSVLTSNCDQFMGNSGPPCKSSTLPSFGSNDSNQNDKENIVEVLNVVPKDGAKTLTSMRAVEDENGVVHYYMDDEVADS”, the “soluble on expression in E. coli” value was “not soluble”.
With “MYPIKIIYVYKAMLDKVIDKAGGVLTEAYGDVVKPVLKPIGEVLGFLPRSIKCLLQGWEKWIINGEESIRLTSEAIRKKIEATPAERLTEPEPYVVVPAIQQLGYSHSSEELRELYANLIVSSMDVEKKGLVHPAFVDILKKLTPDEAKIIQYFKGRDFIEYLDLRAYIKEEEGGGFRTIADHKTLLSDEVNFFMPDNELAYLQNLVCLGILKDCEGTFTVIEDNYKLIENKLGLESLRNQYVPEQFSSIRSEKSFYQVTDFGRNFINTVTE” the “soluble on expression in E. coli” value was “not soluble”.
With “MYPLTLLRISRNRIVELELKNNDQLRGLLHKCDMAMNLHLKSVTIQKEDGSSIFINECYLKGTSIRLVKLESKILLEQREECVSNNKA” the “soluble on expression in E. coli” value was “not soluble”.
For “MYPSDFASALESLSLKEMRQAIHRLLDIRDENTWMLFGTLPFYACSPDEDDQKLLRRLRAAKNVTVRNDPDGRSRLNVNIFDGNIIVTDFGDTPPLGNIQTDSLPSAYEKWRETKLAKELSCHCPNVRCLGPNVLVKNSYYQDTDFTKRQARS”, the “soluble on expression in E. coli” value was “not soluble”.
For “MYRQALASGEKIFAVAPMIDWTDTRCRFLHRQLSKRALLFTEMIVADAIIHGQREKLLGYHPQEHPVALQLGGSNPAKLAEAVRIAGDYGYDEINLNVGCPSDRVQSGTFGACLMREPEVVAQCISAMKAVAAVPVTVKCRIGVDDQEPETVLPDFLARVVAAGADAVWVHARKAWLQGLSPKENREVPPLDYDLVYRMKRDNPDVFIGINGGIADLDQAGEHLKYVDGVMLGRAAYHNTSILADVDHRIHGEEALQYDWMALRDTMMAYAADYIATGGRLNHVTRHMVGLFQGMPGARRFRQILSSDATRPGAGPEVIEAAFAAIDFNPMKELAG”, the “soluble on expression in E. coli” value was “not soluble”.
In the case of “MYRSHFIADVTPEYDGKEVIWAGWVHLLRDLGGKKFIILRDKTGLGQVVVDKNSSAFGISQELTQESVIQVRGIVKADKRAPRGIELHAEEITLLSKAKAPLPLDVSGKVKADIDTRLRERVLDLRRQEMQAVIKIQSLALKAFRETLYKEGFIEIFTPKIIASATEGGAQLFPVIYFGKEAFLAQSPQLYKELMAGVVERVFEVAPAWRAEESDTPFHLAEFISMDVEMAFADYNDVMQLLEKILHNIVKTIKEEGKEELKILNYEPPEVKIPIKRLKYTEAIEILRSKGYNIKFGDDIGTPELRILNEELKEDLYFIVDWPSDARPFYTKSKSENPELSESFDLIYKFLEIVSGSTRNHKREVLEEALKKKGLKPESFEFFLKWFDYGMPPHAGFGMGLARLMVMLTGIQSVKEIVPFPRDKKRLTP”, the “soluble on expression in E. coli” value is reported as “soluble”.
With “MYSFTTERLMIRPLRAEDEVFYCQLYADSKVMENIGKTITKKQARQWFKRALKALSSPKKSVVTLAIVKKSTNNIIGIQALSWQNTTQILKPCSQKLVQAEIGIMLTTKAQGQGFGKEAIKALMAYGFVYHSLDRINAFYAKKNLASERLFNSLH” the “soluble on expression in E. coli” value was “not soluble”.
In the case of “NCHIFKTKAKESQGASPTLGQSEAYHRQNKPYEQQPYGFGVGKKMTSSSKSKVPIFKSFNLKSYQRNHYYSSKKERKHGSPDIDSLFHETNGASKVRMTDAGKMDTNSQFQEIWEILGKNAYTHKSYSEDPNSCLGSALSDHEEEEEAGKQQQQQQQQQQQQQHYGMTSKSSSPDEEKKNNKEPKRESRVSPEENGEEETGHKQFKLPKTSTFSSGSHDSNLQSPFYNHEYRHYARSKFECKNQFRKSVSPIKEIPATTSANEGWNILRDIIEKLNISNVDDRNKDLLFRRDEIGDKNHSDSIDIENLSIKEPKGMKRRKKDDISLEELFQSLPREKDYFMMDAINDSLESINLFKKPKTTQSHEQGGTFAQAESNRAKFKPLLEQCGITPEI”, the “soluble on expression in E. coli” value is reported as “not soluble”.
In the case of “NDNRPVFKEGQVEVHIPENAPVGTSVIQLHATDADIGSNAEIRYIFGAQVAPATKRLFALNNTTGLITVQRSLDREETAIHKVTVLASDGSSTPARATVTINVTDVN”, the “soluble on expression in E. coli” value is reported as “soluble”.
For “NDRFQWTSTLNGTYLKNRVERLSGGENDFINGSSPAAGMVDYATIIKPGEAIGTFWGYEWTGLDEKGHDTYTDVDGNQMIDGGDRKVIGKANPDFTLGWNNSLSYKNWDLNLFFNGSFGAKRLNLVRYTMASAEGNSRFVTLADAYLKGFDKIGSSATYPSLTEGGNNLQPVSTKWLENADFLRLENISLSYTFPKKTTGFADLRLTFSCQNLFTITGYKGMDPAGTTFSNSSVDVDAGIDMGAYPSPRTFTFGLRMNF”, the “soluble on expression in E. coli” value was “not soluble”.
For “NFCVYMCPYSRVQSVLYDNDTIMTVYDYERGGKVFDPKGIKLWKKPETPNAECTGCELCVKVCPTHIDIRKGMQLECINCLECADAC”, the “soluble on expression in E. coli” value was “not soluble”.
With “NGSQQQILSNISSMGTNTIDVRPGKGFGDRRSGRVKTLTADDAKSLESLPFVDSVTPSLSNSLTVRYANQDATASVEGVGEDYFRVRGYEIAKGQFWDEESVNSLAQEAVIDDNTRKEMFADRNP” the “soluble on expression in E. coli” value was “not soluble”.
For “NKDGPVCLQVKPCTPEFYQTHFQLAYRLQSRPRGLALVLSNVHFTGEKELEFRSGGDVDHSTLVTLFKLLGYDVHVLCDQTAQEMQEKLQNFAQLPAHRVTDSCIVALLSHGVEGAIYGVDGKLLQLQEVFQLFDNANCPSLQNKPKMFFIQACRGDETDRGVDQQD”, the “soluble on expression in E. coli” value was “soluble”.
In the case of “NKDMEFTLRANFTYSTNKVNYYEEGDTKYEYTSATGRPNGYMKGYIALGLFKDQEEINNSPKQDFGSYLPGDIKYKDVNGDGVVNSDDQVPVSYQDYPRLMYGFGGEFRWKKLTLGVRFSGIGNTDYYKIWTWGSNNVGYIPFYDGKLGNVLTIAANPANRWIPADYDDPSIPASMRENPNAMFPRLSYGSNQNNAQASTFWKGNRKYLRLDEISLNYNCNCNLLKSIGINSIDLAVVANDLHTWDSVKLFDPELATSNGRAYPIPGRVSFQAIVHF”, the “soluble on expression in E. coli” value is reported as “not soluble”.
In the case of “NKMPVIEVQGIVPTEIIVSPRYYRMGFVGGDLSVPVGQFVFRGEAAFNIDKHFTYKSHAEQEGFQTINWLAGADWYAPGEWMISGQFSMESIFRYRDFISQRQHSTLITLNVSKKFFGSTLQLSDFTYYDLTGKGWFSRFAADYALNDQIHLMAGYDWFSSKGSGIFDRYKDNSELWFKARYSF”, the “soluble on expression in E. coli” value is reported as “not soluble”.
For “NKNFTWTSNFNLTYQRALVDKLPEGKDIQYGDGEMYLHREGESMYTFYLPEWKGVNPETGLGEFWLDPEDHSKGVVNDYSEAGKGIVGKALPDVIGGFSNTFTYKDFDLSFLITYQFGGDMFDYPGYFSHHDGVRIGSMNLSEDVAGNYWKNPGDKVDNPMPIYANPYRWDRFSSRTIKSTDNIRLREMTVGYTLPVLKKHISNFRIYFRANNLAMLWSKTKNIDPDVAINGYRQADTPALRSCVFGINIKL”, the “soluble on expression in E. coli” value was “not soluble”.
In the case of “NLNMAVSVTPIRDTKWLTLEVCREFQRGTCSRPDTECKFAHPSKSCQVENGRVIACFDSLKGRCSRENCKYLHPPPHLKTQLEINGRNNLIQQKNMAMLAQQMQLANAMMPGAPLQPVPMFSVAPSLATNASAAAFNPYLGPVSPSLVPAEILPTAPMLVTGNPGVPVPAAAAAAAQKLMRTDRLEVCREYQRGNCNRGENDCRFAHPADSTMIDTNDNTVTVCMDYIKGRCSREKCKYFHPPAHLQAKIKAAQYQVNQAAAAQAAATAAAMGIPQAVLPPLPKRPALEKTNGATAVFNTGIFQYQQALANMQLQQHTAFLPPVPMVHGATPATVSAATTSATSVPFAATATANQIPIISAEHLTSHKYVTQM”, the “soluble on expression in E. coli” value is reported as “soluble”.
In the case of “NNADYIEMKVPAQPEYVGIIRLTLSGVASRMGYTYDEIEDLKIAVSEACTNAVQHAYKEDKNGEVSIRFGVFEDRLEVIVADEGDSFDFDQKQQDLGPYTPSHTVDQLSEGGLGLYLMETLMDEVRVQNHSGVTVAMTKYLNGERVDHDTTIKNYETN”, the “soluble on expression in E. coli” value is reported as “not soluble”.
With “NNELSPVALRQMSCAAGTTQTACTDDNALAYYNNSKGGRFVLALLSDHQDLKWARFPKSDGTGTIYTELEPPCRFVTDTPKGPKVKYLYFIKGLNNLNRGMVLESLAATVRLQLEHHHHHH” the “soluble on expression in E. coli” value was “soluble”.
With “NNLLYKRWVKQRAADVDKWSDGRLGYVHIQSMGDDSFRSVYSDILGKYNNREGIVIDTRFNGGGRLHEDIEVLFSGKKYFTQVVRGREACDMPSRRWNKPSIMLTCEANYSNAHGTPWVYSHQKLGKLVGMPVPGTMTSVSWERLQDPSLVFGIPVIGYRLPDGSYLENTQLEPDIKVANSPETIVKGEDTQLKTAVEELLKELPAGKGKKH” the “soluble on expression in E. coli” value was “not soluble”.
For “NPMSVLLGKAEQLNLLYDKYWDDSMRLNPLQATLQGDAYHGDRMPNFLSAEFRKQHHDFIEKWLKKVEMVGADGLDGQAFISYQIFVRDARNSLHAERYPNWMLPINQFYNIANVAVVLGSGNGAQPFNTVQDYDNWAHRSLGIPALFNQAIVNMRLGMKSGVVQPKVLMEKVIPQLDSIIKPTAEETLFWVPIRNMSVTFSKENRQRITAEYKSIIEYRLLPAYRALRNFIATEYLPVCRDSVGLSALPGGASWYAYTVRQSTTTNMTPEQIHQLGLKEVERLQAEIQSVMRQLNFNGSMQKFFSFMQNNEYFTFGSEKEMLAYYRDLRTRVEARVPALFSLVPKAGFEILPVESFRAPSAAAGSYMPPSSNRRHNGVFYANTNDLSSRRTWNAEKLFLHQGIPGYHFQLGLQQELRNLPKFRRLGGETAFIEGWGLYAESLGKELGLYQDAYNYFGYLQDALSRAIRLVVDTGLHTKGWTRAQVVDYIVENSATSPIEAEAEVDRYIAIPGQALAYKVGELKIHQLRQYAQLTLGPMFDLREFHAEILKDGSVPLDILQQKIERWIAVK”, the “soluble on expression in E. coli” value was “not soluble”.
In the case of “NRYAKILVEKEKNRRTVMEQKMELESYKKVNVANDRYITLLHDTNHHIKTVYSLLKKDKKDDAMNMLSKLFDKYEKAEMIEYSGNTILNTILSDYKEKSSKENIECDIFVERGFNIEYVDEIDLVAMLSNLLSNSYEAAAKSDMKKIRIQMFMQNDGSFSVIKIENSYTSMIVEEDSVLKTTKQNKEFHGLGIKSVQQIAEKYNGWLSSTWSDNVFKSVLILENSMC”, the “soluble on expression in E. coli” value is reported as “not soluble”.
For “NSSAQLLELCTEHGLSISSLMMANELSLASEEEVKAKLWNIWQTMKTCIERGYQKEGILPGGLKLRRRAPALYRRLKAEGRNNVDPLTAMDWVDLFALSVNEQNAAGDRVVTAPTNGAAGIIPAVLCYYDTFVQEVDIDVCARYLLTAAAIGILYKKNASISGAEVGCQGEVGVACSMAAGALTEIMGGTVEHVENAAEIGMEHNLGLTCDPVGGLVQVPCIERNAMGAIKAINASRMALRGDGNHKVSLDKVIKTMMDTGKDMRSKYKETAKGGLAVN”, the “soluble on expression in E. coli” value was “not soluble”.
In the case of “NSSKSLEAELVRDRQELIDARKKELKAYMMMGVTAIKPLYDSDVNGSNKQAAKEILKAMRFESDGYFFAYDSQGINTLHAIKPSLEGKNLYDLKDENGVAVIAGLIDASQKGDGFLYFSWHKPTINAQAPKLGYAEYLQKWDWVLGTGIYIDDIDQQVAMQRELRTQELNQHT”, the “soluble on expression in E. coli” value is reported as “soluble”.
